For test [1], the target named is Human IL-10Rβ extracellular domain (20-220), biotinylated (human) (UniProt Q08334). The test can be described thus: SPR; IL-10 clone 5.1 alone, immobilized. Conditions: ligand.
Test [2] shares this target. The test can be described thus: SPR; clone 5.1 immobilized, pre-bound with saturating soluble IL-10Rα. Conditions: ligand.
Test [3] has as its target Human IL-10Rβ on cells (Daudi, Jurkat, YT-1, THP-1 cell lines; primary human PBMC populations) (human) (UniProt Q08334). Description: cell-based or functional assay.

Here are results for three substances from patent publication US20230192796A1.

Sequence of Human IL-10Rβ on cells (Daudi, Jurkat, YT-1, THP-1 cell lines; primary human PBMC populations) (human) (Q08334 20-325): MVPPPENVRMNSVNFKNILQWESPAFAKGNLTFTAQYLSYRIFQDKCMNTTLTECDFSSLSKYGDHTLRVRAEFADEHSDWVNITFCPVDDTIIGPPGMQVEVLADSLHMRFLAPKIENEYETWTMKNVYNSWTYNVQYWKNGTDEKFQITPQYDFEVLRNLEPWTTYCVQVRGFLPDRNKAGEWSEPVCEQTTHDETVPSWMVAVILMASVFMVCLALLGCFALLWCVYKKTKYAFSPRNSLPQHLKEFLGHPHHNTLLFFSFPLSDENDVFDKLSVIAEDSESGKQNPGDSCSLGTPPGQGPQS
Sequence of Human IL-10Rβ extracellular domain (20-220), biotinylated (human) (Q08334 other isoform, or with tags, fused parts or gaps): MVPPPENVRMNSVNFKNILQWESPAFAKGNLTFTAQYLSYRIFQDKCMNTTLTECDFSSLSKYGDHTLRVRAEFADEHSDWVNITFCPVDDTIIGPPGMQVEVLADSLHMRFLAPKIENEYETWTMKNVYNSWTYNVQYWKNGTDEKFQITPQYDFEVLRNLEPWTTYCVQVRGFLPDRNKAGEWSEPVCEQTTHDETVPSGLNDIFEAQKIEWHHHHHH

Turning to “Affinity matured IL-10 clone 5.1 (Super-10), soluble (from UniProt P22301 19-178)”, the results for the Kd in test [1] and in test [2] were 70 nM and 30 nM, respectively. In test [3], “IL-10 D25A/E96A variant (10-DE) (from UniProt P22301 19-178) (ligand)” displayed an STAT3 activation relative to WT IL-10 in primary NK cells, B cells and T cells of 35 to 50%; a phospho-STAT3 activity in YT-1 cells of 50%.

The substance “IL-10 D25K variant (from UniProt P22301 19-178) (ligand)” showed a phospho-STAT3 activity in YT-1 cells in test [3] of 50%.
